Target: T1, Sif (Lmo0946-His6) (Listeria monocytogenes EGD-e) (UniProt Q8Y8F8)
T1 sequence: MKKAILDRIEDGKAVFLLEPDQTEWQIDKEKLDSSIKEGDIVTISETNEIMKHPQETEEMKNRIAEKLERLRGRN
Test: EMSA
Details: EMSA 37 C 30 min, 4.2% native PAGE, ethidium bromide stain; binding buffer not stated (protein dialyzed in 20 mM Tris-HCl pH 8.0, 150 mM NaCl, 1% glycerol)

Row | Sequence | binding
1 | AGCGAATTAGCTCAAGTCCTCCATACCCCGTCGCGCCAATGATTGAAACTTTCATCCTAACCCCTCCCCGTTAATTATTAAATGATACTTTTCATTATAATGATGTATATTTATAATGTCAAATGGTTTTTTATTAATATTTAAAACTATTTTATGCATTTTAAGTTATTTATTATGTATATAATATACAAAAAACCGTTTATCCTTTTCTAGGATAAACGGTTAATCTTAAAATAAATCAGCGAACTCATCTTTCACTTGCGCAGTTTCCGCTAC (double strand) [argC promoter region] | no binding
2 | GCGGTATGTTTCCACTGTCGCTGTAATACCTGATTGTTCTTTAGAAAGGTCGCGTAGTCGCTTTGGATCAGATACTACATCTGGATCACTTAGTAGTTCATTTAGTTCATCATAACGGTCTTCCACCGCCTGTAATCGATCATACATTGTATTCCAACACCTCTTTAACTTATTTTATTGGTGGATTGGCATGACATTTGCGACACACAGGGTAATAGTGGTCATTTCCGCCAATCATAATTTGTTCACCTGTATAAACTGGTTTTCCTTTGTCATCAACGCGCAG (double strand) [prfA promoter region] | no binding
